Source: article PMC8162069

Substrate: O=C[C@H](O)COP(=O)(O)O
Assay: purified protein
Format: biochemical, Trichoderma virens
Conditions: without HA

Protein | Km | kcat | kcat/Km
HepG (Trichoderma virens Gv29-8; A201L) (protein) MVPKVGINGFGRIGRVVLRNALETGAVEVVALNDPFIEPHYAEYMFKYDSTHGRFKGDIKVDGKDLVIDGKRIKFYQERDPANIPWKDSGAEYIVESTGVFTTTEKASAHFKGGAKKVIISAPSADAPMYVMGVNEDTYAGANVISNASCTTNCLAPLAKTLNDKFTIVEGLMTAIHAYTASQKTVDGPSSKDWRGGRAALQNLIPSSTGAAKAVGKVIPELAGKVTGMSVRVPTVNVSLVDFTVRFAKDVTYDEVKAAIKEASEGPLKGILAYTEDDIVSTDILTDPHSSTFDAKAGIALNKNFVKVMSWYDNEYGYSRRVVDLIVFVSKKDAGQ | 260 ± 50 µM | 21.7 ± 3.33 s⁻¹ | 83300 M⁻¹ s⁻¹
Tv-GAPDH (Trichoderma virens Gv29-8) (protein) MAPIKVGINGFGRIGRIVFRNAVEHPDIEVVAVNDPFIETTYAAYMLKYDSSHGLFKGDVEVDGKDLVVNGKKVRFYTERDPANIKWSETGADYIVESTGVFTTTEKAKAHLVGGAKKVIISAPSADAPMYVMGVNENDYNGSADVISNASCTTNCLAPLAKVINDNYGIVEGLMTTVHSYTATQKTVDGPSAKDWRGGRGAAQNIIPSSTGAAKAVGKVIPSLNGKLTGMSIRVPTANVSVVDLTVRLEKGATYAEITETIKKAADGPLKGVLAYTNDDVVSSDMLGNTNSSIFDIKAGISLNDNFVKLVSWYDNEWGYSRRVLDLLAHVAKVDASK | 1100 ± 200 µM | 115 ± 21.7 s⁻¹ | 105000 M⁻¹ s⁻¹
HepG (Trichoderma virens Gv29-8) (protein) MVPKVGINGFGRIGRVVLRNALETGAVEVVALNDPFIEPHYAEYMFKYDSTHGRFKGDIKVDGKDLVIDGKRIKFYQERDPANIPWKDSGAEYIVESTGVFTTTEKASAHFKGGAKKVIISAPSADAPMYVMGVNEDTYAGANVISNASCTTNCLAPLAKTLNDKFTIVEGLMTAIHAYTASQKTVDGPSSKDWRGGRAAAQNLIPSSTGAAKAVGKVIPELAGKVTGMSVRVPTVNVSLVDFTVRFAKDVTYDEVKAAIKEASEGPLKGILAYTEDDIVSTDILTDPHSSTFDAKAGIALNKNFVKVMSWYDNEYGYSRRVVDLIVFVSKKDAGQ | 280 ± 50 µM | 41.7 ± 6.67 s⁻¹ | 148000 M⁻¹ s⁻¹
